Substitutions are numbered along the chain they refer to. Names may count otherwise.

Substrate in this data set: NC(=O)CC[C@H](N)C(=O)O
Description: cells, lysate or membranes. The format is biochemical, Corynebacterium glutamicum. As to conditions: 1.5 mM NADPH, 35 mM 2-oxoglutarate, 100 mM phosphate pH 7.0, 30 °C.

B1: GltBD (GOGAT, L-glutamic acid-2-oxoglutarate aminotransferase) (Corynebacterium glutamicum ATCC 13032) (protein)
chain: CGVAFIADIHGRPSRSIVDRALEALRNIDHRGAAGAEKNTGDGAGILMQIPDGFYREVSGIELPEAGEYATGIAFLPRGRMAMMDAQKEIERIAKQEGADVLGWRMVPFDSRDLGSMAEEAMPSFAQIFLTVPGKSGEDLDRVMFFIRKRCERELGTTNGRDTVYFPSLSSRTIIYKGMLTTLQLEGFFEDLGDARLESAIAIVHSRFSTNTFPSWPLAHPYRFVAHNGEINTVRGNENWMRAREALIKNDKLGNLSSVLPICTPEGSDTARFDEALELLHLGGYSLPHAVAMMIPQAWEHNKTLSPELRDFYEYHSCLMEPWDGPAALAFTDGRFVGAVLDRNGLRPGRITITDSGLVVMASESGVLDLREESVVKRTRVQPGRMFLVDTAEGRIVEDEEIKQKLSEAQPYGEWIRDNFVHLDRLPQTRYNYMAHSRAVLRQRVFGITEEDVDLLLLPMARQGAEAIGSMGSDTPIAALSQRPRMLYDFFAQRFAQVTNPPLDSIREKPVTSMFTLLGAQSDVLNPGPDAARRIRLESPIIDNHELATLINANAHGEWDSFGAAVISGLYPVAHHGAGMKAAIARVRREVSEAIRNGKTLIVLSDRESDERMAPIPALLLTSAVHQYLVQQRTRTQCSLVVESGDAREVHHLAMLIGFGADAINPYMAFETIDELRMKGQLGDLSLDEASRNYIKAATTGVLKVMSKMGIATVSSYRGAQLADVTGLHQDLLDNYFGGIASPISGIGLDEVAADVEARHRSAFLPRPEEHAHRELDLGGEYKWRREGEYHLFNPETIFKLQHATRSGSYEIFKDYTRKVDDQSTRLGTIRGLFEFSTDRKPISVSEVEPVSEIVKRFSTGAMSYGSISAEAHEVLAIAMNRLGGMSNSGEGGEDARRFDVEPNGDWKRSAIKQVASGRFGVTSHYLNNCTDIQIKMAQGAKPGEGGQLPPNKVYPWVAEVRITTPGVGLISPPPHHDIYSIEDLAQLIHDLKNANPRARIHVKLVAEQGVGTVAAGVSKAHADVVLISGHDGGTGASPLTSLKHAGGPWELGLAETQQTLLLNGLRDRIRVQCDGQLKTGRDVVIAALLGAEEFGFATAPLVVEGCIMMRVCHLDTCPVGIATQNPDLRSKFTGKAEHVVNFFTFIAQEVREYLAQLGFRSIDEAVGQAQVLRKRSGIPADSRAAHLDLSPIFHRPETPHFPTQDVRCTKTQEHSLEKALDNAFIDKASDTITRAAAGVETSIVIDSSISNVNRSVGTMLGSAVSRVAGAQGLPDGTITLNLQGCAGNSFGAFIPRGITINLTGDANDFVGKGLSGGKIVIKPSAQAPKQLKNNPNIIAGNVLGYGATSGELFIRGQVGERFCVRNSGATAVVEGIGNHGCEYMTGGRVLVLGPVGENFGAGMSGGIAYLANSPDLNQKINGELVDVVPLSADDLTWADELIARHRELTGSETKLRAQDLVKIMPRDFQKVLNIIETAHAEGQDPAIKIMEAVS
notes: full-length gltBD on plasmid pEKEx3, overexpressed in C. glutamicum GRLys1ΔgltB (chromosomal gltB deleted); untagged; crude extract; with Glutamate synthase [NADPH] small chain
With B1, the Km (commonly the substrate concentration at which the rate is half of its maximum) is 250 ± 30 µM.

B2: GltBD (GOGAT, L-glutamic acid-2-oxoglutarate aminotransferase) (Corynebacterium glutamicum ATCC 13032; E686Q) (protein)
chain: B1 chain with E671Q
notes: as for B1
B2: the Km turned out to be 520 ± 40 µM.

For the origin of these results see publication PMC8112011, “Adaptive laboratory evolution accelerated glutarate production by Corynebacterium glutamicum” (Microbial Cell Factories, 2021).
